Test results published in the supplement of paper PMC9170038.

Tested on: K4 kissing-loop RNA reporter
Experiment: apparent KD of K4 kissing-loop reporter; higher = weaker reporter binding
Details: Eterna round: R107
Experimental: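 RNA-MaP round R107: designed RNA switches with theophylline, tryptophan, arginine or FMN aptamers are transcribed on-chip within common flanks. They are titrated with a labelled K4 kissing-loop RNA reporter in RNA-MaP buffer (100 mM Tris pH 7.5, 80 mM KCl, 4 mM MgCl2), without ligand or with the indicated ligand. Median apparent KD per design.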

[1] = input ligand: theophylline 20 uM
[2] = input ligand: tryptophan 2.4 mM
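Further: bound reporter read as fluorescence of individual clusters on recovered sequencing chips by microscopy, with normalized cluster intensities fitted with a binding model.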

Sequence | apparent KD of K4 kissing-loop reporter (input ligand: FMN 200 uM) | apparent KD of K4 kissing-loop reporter (input ligand: arginine 13.2 mM) | apparent KD of K4 kissing-loop reporter (input ligand: none) | apparent KD of K4 kissing-loop reporter [1] | apparent KD of K4 kissing-loop reporter [2]
AAAACUAUCAGAAGGAGCGUGGAAUAUACAUCUAUAUUUAAUACGAGUGAUGUUCGUAAUUCACAGGUAGGUCGCUGAUCAAUAA [whbob_Ex_Arginine_B_2th153] | 228 nM | 320 nM | 278 nM | 359 nM | 206 nM
AAAACUAUCAGAAGGAGCGUGGAAUAUUCAUCUGUAUCUAAUACGAGUGAUGUUCGUAAUUCACAGGUAGGUCGCUGAUCAAUAA [whbob_Ex_Arginine_B_2th155] | 255 nM | 226 nM | 241 nM | 250 nM | 241 nM
AAAAUAAAAGCAGUCAUCGGAGUGAUGUUCCGAGGACCGGUACGGCCGCCACUCGACCAGACAAAGUCUGGAUGGCGAGACUGCA [#SwitchBubble 18 #K4Early] | 83.6 nM | 85.1 nM | 102 nM | 91.4 nM | 85.6 nM
AAAAUAAACCAGUGAUGUUGGUGUCCAGAUACCAGCGACGAAAGUCGCCCUUGGCAGCUGUGGACGUACAAAAUAAGUACGUCCU | 332 nM | 229 nM | 356 nM | 209 nM | 290 nM
AAAAUAAAUCAGUGAUGUUGGUAUCUGGAUACCAGCGAUAAUAAUCGCCCUUGGCAGCCAUGGACGUACAAAAUAAGUACGUCCU [MatMod 18 - Jieux - Same State - Theophylline A] | 285 nM | 154 nM | 226 nM | 337 nM | 200 nM
AAAAUUAAGGCCGAAUAAACUUAUUUCAUACGAGGACCGGUACGGCCGCCACUCGAGUCAAGUGAUGUUUGACUAUCUAUUAUUA [JR_ExcTryptoA_Sub009] | 61.4 nM | 87.1 nM | 68.7 nM | 83 nM | 54 nM
AAACAUCACUGGGAGUGAUGUUCUCAGUGACGAGGACCGGUACGGCCGCCACUCGCGAGAGAUAUAGAUGAGUAAUGACAUCAUU [Excl Tryptophan A V3] | 277 nM | 232 nM | 286 nM | 274 nM | 304 nM
AAACAUCACUGGGAGUGAUGUUCUCAGUGACGAGGACCGGUACGGCCGCCACUCGCGAGAGAUUUAGUCUAGUAUUGACUGCAUU [Excl Tryptophan A V11] | 294 nM | 273 nM | 304 nM | 353 nM | 358 nM
AAACGUUGGUGCGAUACCAGCUUGCGCGGAAAACGCGCUACUGGAGUGAUGUUCCUAAAUAGCCCUUGGCAGCGCACCGACGAAA [MAT - Same State Theophlline B - Mod of Eli - D9] | 193 nM | 146 nM | 155 nM | 107 nM | 170 nM
AAAGCAUUGAGAAGGAGCGUGUCGUGGAGUGAUGUUCCAUUGUAGACCUAAGGUCUACAAGCACAGGUAGGUCGCUCAUUGCUAA [JR_Nu_SSArginiB_Sub023] | 169 nM | 148 nM | 173 nM | 138 nM | 156 nM
AAAGGAUCAGAGAGUGAUGUUCUCUAAUAACGAGGACCGGUACGGCCGCCACUCGAAGAUCCAAAAGUCCUACGAAAAGUAGGAC [Omei inspired 7] | 92.9 nM | 69.3 nM | 83.7 nM | 251 nM | 263 nM
AAAUAGAUCAGUCACCCAGUGAUGUUGGAAGGAGCGUGCGAAAGCACAGGUAGGUCGCCGAAAUAAAAUUGGCUGAUCAAAAUAA | 151 nM | 221 nM | 116 nM | 308 nM | 104 nM
AAAUAGCAGCAACGAGUGAUGUUCGACGAUACCAGCCUCGAUAGAGGCCCUUGGCAGCGUAAAUGAUCACAAAGCCAAGGGCUGC [#SwitchBubble 2] | 382 nM | 372 nM | 458 nM | 453 nM | 397 nM
AAAUAUUCGAGUGAUGUUCGAAUAAUAUCAGAGGAUAUGCAUAAAAGCAGAAGGCUGUAUUACUUUUUGUUACGAAAUUUUAUAA [JR_SSFMNA_Sub020] | 111 nM | 115 nM | 102 nM | 118 nM | 115 nM
